The data set has as its system MS2 coat protein. Put plainly: apparent KD of MS2 coat protein; designed switch direction (-1 OFF switch, 1 ON switch): -1; higher = weaker reporter binding. In short, it runs like this: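 Each step of the titration lasted 0.8–1.5 h at the lowest concentration and 10–20 min at the highest. The protein, SNAP-549-labelled MS2 coat protein, went from 0.7 or 1.5 nM doubling to 3 µM over RNA switches transcribed on Illumina chips by stalled E. coli RNA polymerase. Normalised cluster fluorescence was curve-fitted, and the per-design median over clusters is given as apparent KD.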

Setting [1] is: Eterna round: R95, input ligand: FMN 200 uM.
[2] abbreviates: Eterna round: R95, input ligand: microRNA oligo, concentration not stated.
Where [3] appears, read: Eterna round: R95, input ligand: none.
Where [4] appears, read: input ligand: microRNA oligo, concentration not stated.

We go through 14 sequences from the supplement of paper PMC9170038.

With “AAAAGAAGUGUUAGGAUAUGUGGAAGUAGAAAGACACAGAAGGAACAUGAGGAUCACCCAUGUGGCCUAAGAAC [Bibire] (puzzle: Brourd's mod of Exclusion 4)”, the “apparent KD of MS2 coat protein” value under setting [1] came out at 0.0154 µM, the “apparent KD of MS2 coat protein” value under setting [2] was 0.0105 µM and the “apparent KD of MS2 coat protein” value under setting [3] was determined as 0.0116 µM.
Take “AAAAGGCAAGCAUGAUCCCACAUGAGGAUCACCCAUGUGUUCGUCUUAUAGGCUGCUGAGGCUUUUGCCUCGGUGGC [LRO Sensor-off var1-05 loose mod of D91 from Mat747] (Eterna round: R97, puzzle: Sensor, turn-off variant 1)”: the “apparent KD of MS2 coat protein” value by setting is: (input ligand: FMN 200 uM) 0.587 µM; (input ligand: none) 0.728 µM.
On to “AAAAGGCAGGGAGGAUAUGCUUACCUGGGUCGUCUUCAAACAUGAGGAUCACCCAUGUAGUCGACGCAGAAGGCCCUCAAAGCC [Mat - Exclusion NG 2 - Mod of JL - D58] (Eterna round: R96, puzzle: Exclusion NG 2)”, for which the “apparent KD of MS2 coat protein” value is 0.0396 µM (input ligand: FMN 200 uM), 0.0212 µM under setting [4] and 0.0227 µM (input ligand: none).
In the case of “AAAAGGCGAGGAUAUCCGGGCACGGACAUGAGGAUCACCCAUGUGACCUCGCCCGGCGGAGGAGAAGGCGCCGAAG [Biestein] (Eterna round: R97, puzzle: Exclusion 5)”, the “apparent KD of MS2 coat protein” value was found to be 0.368 µM (input ligand: FMN 200 uM) and 0.158 µM (input ligand: none).
Regarding “AAAAGGCGUGUGAGGAUAUCCGGAGACGUGAAAAGGGAGAAGGCACAUGAGGAUCACCCAUGUGGAGUGUAAAG [Uscece] (puzzle: Brourd's mod of Exclusion 4)”, the “apparent KD of MS2 coat protein” value runs as follows: under setting [1], 0.0382 µM; under setting [2], 0.0186 µM; under setting [3], 0.0275 µM.
For “AAAAGGUCAGGAUAUUCAAGAAAAGAAAAGAAAAGAAAAGAGAAGAAGGGACAUGAGGAUCACCCAUGUAAAAG [Default title] (puzzle: Exclusion 4)”, the “apparent KD of MS2 coat protein” value by setting is: under setting [1], 0.0249 µM; under setting [2], 0.0189 µM; under setting [3], 0.0135 µM.
With “AAAAGUCUUUAGGAUAUGUGCGAUUAAUAUCGUGCAGAAGGAAGGACAUGAGGAUCACCCAUGUUGAAGACAAC [Omei Ex6 A19] (Eterna round: R97, puzzle: Exclusion 6)”, the “apparent KD of MS2 coat protein” value is, setting by setting: (input ligand: FMN 200 uM) 0.0511 µM; (input ligand: none) 0.0221 µM.
Turning to “AAAAGUUGGUAAGGAUAUCCCACAUUAUUCUGACCCGUGCAAGCUACAUGAGGAUCACCCAUGUGGGAGAAGGUGCGUUAAAGA [Zatiisor] (Eterna round: R96, puzzle: Exclusion NG 2)”, the “apparent KD of MS2 coat protein” value is, setting by setting: (input ligand: FMN 200 uM) 0.209 µM; under setting [4], 0.0551 µM; (input ligand: none) 0.0788 µM.
As to “AAAAUACAUGAGGAUCACCCAUGUCAGGAUAUGCUAAAAAAAAAAUUAAAAAAAAAAUGUAGAAGGGACUAAAA [Exclusion Z2] (Eterna round: R96, puzzle: Exclusion 1)”, under setting [4], the “apparent KD of MS2 coat protein” value came out at 0.0716 µM.
For “AAAAUACGCACAGGAUAUCAAUACAUGAGGAUCACCCAUGUAACAUGGACUGGUCAGCAGAAAAGUGAGAAGGGUGCUGACGAC [Beraon] (Eterna round: R96, puzzle: Exclusion NG 2)”, the “apparent KD of MS2 coat protein” value is, setting by setting: (input ligand: FMN 200 uM) 0.187 µM; under setting [4], 0.0316 µM; (input ligand: none) 0.0456 µM.
Turning to “AAAAUACGCACAGGAUAUCGAUACAUGAGGAUCACCCAUGUAACAUGGACUGGUCAGCAGAAAAGCGAGAAGGGUGCUGACGAC [Lediaroren] (Eterna round: R96, puzzle: Exclusion NG 2)”, the “apparent KD of MS2 coat protein” value turned out to be 0.334 µM (input ligand: FMN 200 uM), 0.0903 µM under setting [4] and 0.0556 µM (input ligand: none).
Consider “AAAAUGUAAGGAUAUCGUUCACUUGACAAAAGUCAAGUGAACGAGAAGGUACAUGAGGAUCACCCAUGUAUGGG [-29.9, -29 kcal, A 38%] (Eterna round: R97, puzzle: Exclusion 4)”, for which the “apparent KD of MS2 coat protein” value (input ligand: FMN 200 uM) was determined as 0.131 µM and the “apparent KD of MS2 coat protein” value (input ligand: none) was 1.34 µM.
Take “AAAAUGUCAGGAUAUGUGAAAGAAAAGAAAAGAAAAGAAAAACAGAAGGGACAUGAGGAUCACCCAUGUAAGAA [Exclusion 4 #3] (puzzle: Exclusion 4)”: the “apparent KD of MS2 coat protein” value under setting [1] was found to be 0.0216 µM, the “apparent KD of MS2 coat protein” value under setting [2] is 0.0252 µM and the “apparent KD of MS2 coat protein” value under setting [3] was 0.0271 µM.
Regarding “AAACAAGCGUGAGGCUCGUCUUAAAAAGCCUCAUGAAAAACAUGAGGAUCACCCAUGUAAAAUGAUCGAAAGAUCAA [JL turnoff v2 29] (Eterna round: R96, puzzle: Sensor v2, turn-off variant 2)”, the “apparent KD of MS2 coat protein” value (input ligand: FMN 200 uM) was 0.0155 µM, the “apparent KD of MS2 coat protein” value under setting [4] came to 0.0434 µM and the “apparent KD of MS2 coat protein” value (input ligand: none) turned out to be 0.0176 µM.
